Measurements from patent US20240418729A1.
Each block holds one substance with its values, some of them ahead of it.

Legend:
[1] = molecular target: human lambda light chains (lambda LCs) of control pooled human serum (human); assay: affinity capture from 100 µl IgG-depleted serum, elution, LysC digestion, PRM mass spectrometry
[2] = molecular target: human kappa light chains (kappa LCs) of control pooled human serum (human); assay: affinity capture from IgG-depleted serum, elution, LysC digestion, PRM mass spectrometry
[3] = molecular target: human kappa light chains (kappa LCs) of control pooled human serum (human); assay: affinity capture from 50 µl IgG-depleted serum, elution, LysC digestion, PRM mass spectrometry

fold increase in lambda FLC dimer signal compared to un-enriched serum [1]: 113 fold
Substance: Capture Select affinity beads specific for lambda (LambdaXP) LCs

fold increase in kappa FLC dimer signal compared to un-enriched serum [2]: 155 fold
Substance: protein L agarose

fold increase in kappa FLC dimer signal compared to un-enriched serum [3]: 186 fold
Substance: Capture Select affinity beads specific for kappa (KappaXP) LCs
